The text below walks through data of PMC8087788, “Parallel G-quadruplexes recruit the HSV-1 transcription factor ICP4 to promote viral transcription in herpes virus-infected human cells”.

Data set [1] addresses T1, ICP4 (nuclear extract) (HSV-1 strain F) (UniProt P08392).
T1 sequence: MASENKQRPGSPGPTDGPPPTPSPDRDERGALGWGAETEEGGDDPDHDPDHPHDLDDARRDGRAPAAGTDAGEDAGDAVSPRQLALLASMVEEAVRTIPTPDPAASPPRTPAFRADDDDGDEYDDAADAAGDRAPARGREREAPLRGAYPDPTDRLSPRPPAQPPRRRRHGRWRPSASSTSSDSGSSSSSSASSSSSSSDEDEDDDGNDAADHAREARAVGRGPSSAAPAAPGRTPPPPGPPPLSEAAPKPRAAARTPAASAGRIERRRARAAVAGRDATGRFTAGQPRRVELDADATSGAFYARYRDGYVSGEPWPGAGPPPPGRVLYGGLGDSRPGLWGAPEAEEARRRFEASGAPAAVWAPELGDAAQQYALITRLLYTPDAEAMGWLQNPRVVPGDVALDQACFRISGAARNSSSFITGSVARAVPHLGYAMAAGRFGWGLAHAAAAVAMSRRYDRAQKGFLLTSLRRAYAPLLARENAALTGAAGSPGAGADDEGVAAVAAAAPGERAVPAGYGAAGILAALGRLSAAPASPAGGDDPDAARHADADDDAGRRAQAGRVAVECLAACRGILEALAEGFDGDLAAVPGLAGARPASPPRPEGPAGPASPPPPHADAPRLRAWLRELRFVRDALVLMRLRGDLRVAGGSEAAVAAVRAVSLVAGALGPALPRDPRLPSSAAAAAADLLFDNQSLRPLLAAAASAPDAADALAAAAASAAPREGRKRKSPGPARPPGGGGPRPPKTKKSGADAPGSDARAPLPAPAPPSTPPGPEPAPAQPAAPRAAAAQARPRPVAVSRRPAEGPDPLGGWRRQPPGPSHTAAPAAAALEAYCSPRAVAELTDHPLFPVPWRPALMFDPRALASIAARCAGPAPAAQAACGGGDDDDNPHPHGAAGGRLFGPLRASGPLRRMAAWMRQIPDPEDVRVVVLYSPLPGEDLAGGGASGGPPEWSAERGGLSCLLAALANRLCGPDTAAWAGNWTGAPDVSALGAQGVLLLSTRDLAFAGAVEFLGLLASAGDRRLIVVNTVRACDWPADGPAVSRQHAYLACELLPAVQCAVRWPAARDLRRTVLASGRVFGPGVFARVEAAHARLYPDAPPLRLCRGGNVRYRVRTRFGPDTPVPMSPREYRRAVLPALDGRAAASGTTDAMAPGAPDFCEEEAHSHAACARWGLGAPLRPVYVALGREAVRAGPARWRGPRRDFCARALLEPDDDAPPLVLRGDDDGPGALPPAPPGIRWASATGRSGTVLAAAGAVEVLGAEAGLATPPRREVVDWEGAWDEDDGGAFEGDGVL
Put plainly: pull-down. As to conditions: XL pull-down: oligos folded in 20 mM PB pH 7.4, 80 mM KCl, 4 C, 45 min, wash 50 mM Tris-HCl pH 7.5, 150 mM NaCl; ICP4 EMSA: 20 mM Tris-HCl pH 8, 25 mM KCl ….

Data set [2] concerns the target T2, ICP8 (HSV-1, UniProt P04296 1-1196). Put plainly: EMSA; 0-3 ug ICP8; Na+ and K+ buffers; XL pull-down: oligos folded in 20 mM PB pH 7.4, 80 mM KCl, 4 C, 45 min, wash 50 mM Tris-HCl pH 7.5, 150 mM NaCl; ICP4 EMSA: 20 mM Tris-HCl pH 8, 25 mM KCl, 1.5. The settings on record: protein: recombinant; tags: GST; label: 32P (Methods) / 33P; G4. Background: In EMSA bound probe runs differently from free probe, usually more slowly.

For data set [3], the target named is T3, ufICP4 (ultrafiltrated ICP4) (HSV-1 strain F, UniProt P08392 1-1298).
T3 sequence: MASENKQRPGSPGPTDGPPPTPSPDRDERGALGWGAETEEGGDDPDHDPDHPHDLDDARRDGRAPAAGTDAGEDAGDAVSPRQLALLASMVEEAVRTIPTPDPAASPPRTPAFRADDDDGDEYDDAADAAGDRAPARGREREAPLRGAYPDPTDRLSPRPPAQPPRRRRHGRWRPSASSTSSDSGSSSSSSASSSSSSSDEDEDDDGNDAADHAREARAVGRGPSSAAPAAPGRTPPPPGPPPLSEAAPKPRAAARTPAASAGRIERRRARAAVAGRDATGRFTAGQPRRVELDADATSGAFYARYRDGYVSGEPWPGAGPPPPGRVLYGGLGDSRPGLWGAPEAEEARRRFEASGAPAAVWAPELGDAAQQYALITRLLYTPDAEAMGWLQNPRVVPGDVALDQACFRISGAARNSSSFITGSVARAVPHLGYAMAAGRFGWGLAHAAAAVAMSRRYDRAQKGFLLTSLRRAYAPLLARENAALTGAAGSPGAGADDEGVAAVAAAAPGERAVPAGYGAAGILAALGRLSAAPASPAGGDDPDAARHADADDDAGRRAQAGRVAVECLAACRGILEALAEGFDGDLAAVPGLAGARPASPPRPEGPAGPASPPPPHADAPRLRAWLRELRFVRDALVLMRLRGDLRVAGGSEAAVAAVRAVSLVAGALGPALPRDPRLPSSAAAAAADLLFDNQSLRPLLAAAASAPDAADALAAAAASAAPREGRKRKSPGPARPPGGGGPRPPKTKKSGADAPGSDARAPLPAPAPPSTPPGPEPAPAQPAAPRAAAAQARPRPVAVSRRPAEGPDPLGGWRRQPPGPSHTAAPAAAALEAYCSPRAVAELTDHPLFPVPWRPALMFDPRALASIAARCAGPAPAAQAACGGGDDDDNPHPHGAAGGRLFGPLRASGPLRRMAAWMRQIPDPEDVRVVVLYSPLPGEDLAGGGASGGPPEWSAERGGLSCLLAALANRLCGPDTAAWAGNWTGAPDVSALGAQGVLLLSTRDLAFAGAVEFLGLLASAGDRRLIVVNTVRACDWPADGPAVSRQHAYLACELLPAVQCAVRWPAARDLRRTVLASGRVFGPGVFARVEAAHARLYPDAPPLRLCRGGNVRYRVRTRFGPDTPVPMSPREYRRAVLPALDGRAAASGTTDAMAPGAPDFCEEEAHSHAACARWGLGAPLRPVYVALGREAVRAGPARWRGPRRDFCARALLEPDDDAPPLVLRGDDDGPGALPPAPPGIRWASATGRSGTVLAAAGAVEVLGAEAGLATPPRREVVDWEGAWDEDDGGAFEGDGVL
The data set can be described thus: EMSA; 5-10x ufICP4; XL pull-down: oligos folded in 20 mM PB pH 7.4, 80 mM KCl, 4 C, 45 min, wash 50 mM Tris-HCl pH 7.5, 150 mM NaCl; ICP4 EMSA: 20 mM Tris-HCl pH 8, 25 mM KCl, 1.5. As to conditions: protein: native, chain copies: 2, label: 5' FAM.

Data set [4] deals with T2, ICP8. Put plainly: EMSA; 0-3 ug ICP8; XL pull-down: oligos folded in 20 mM PB pH 7.4, 80 mM KCl, 4 C, 45 min, wash 50 mM Tris-HCl pH 7.5, 150 mM NaCl; ICP4 EMSA: 20 mM Tris-HCl pH 8, 25 mM KCl, 1.5. The settings on record: protein: recombinant; tags: GST; label: 32P (Methods) / 33P.

T2 sequence (P04296 whole entry): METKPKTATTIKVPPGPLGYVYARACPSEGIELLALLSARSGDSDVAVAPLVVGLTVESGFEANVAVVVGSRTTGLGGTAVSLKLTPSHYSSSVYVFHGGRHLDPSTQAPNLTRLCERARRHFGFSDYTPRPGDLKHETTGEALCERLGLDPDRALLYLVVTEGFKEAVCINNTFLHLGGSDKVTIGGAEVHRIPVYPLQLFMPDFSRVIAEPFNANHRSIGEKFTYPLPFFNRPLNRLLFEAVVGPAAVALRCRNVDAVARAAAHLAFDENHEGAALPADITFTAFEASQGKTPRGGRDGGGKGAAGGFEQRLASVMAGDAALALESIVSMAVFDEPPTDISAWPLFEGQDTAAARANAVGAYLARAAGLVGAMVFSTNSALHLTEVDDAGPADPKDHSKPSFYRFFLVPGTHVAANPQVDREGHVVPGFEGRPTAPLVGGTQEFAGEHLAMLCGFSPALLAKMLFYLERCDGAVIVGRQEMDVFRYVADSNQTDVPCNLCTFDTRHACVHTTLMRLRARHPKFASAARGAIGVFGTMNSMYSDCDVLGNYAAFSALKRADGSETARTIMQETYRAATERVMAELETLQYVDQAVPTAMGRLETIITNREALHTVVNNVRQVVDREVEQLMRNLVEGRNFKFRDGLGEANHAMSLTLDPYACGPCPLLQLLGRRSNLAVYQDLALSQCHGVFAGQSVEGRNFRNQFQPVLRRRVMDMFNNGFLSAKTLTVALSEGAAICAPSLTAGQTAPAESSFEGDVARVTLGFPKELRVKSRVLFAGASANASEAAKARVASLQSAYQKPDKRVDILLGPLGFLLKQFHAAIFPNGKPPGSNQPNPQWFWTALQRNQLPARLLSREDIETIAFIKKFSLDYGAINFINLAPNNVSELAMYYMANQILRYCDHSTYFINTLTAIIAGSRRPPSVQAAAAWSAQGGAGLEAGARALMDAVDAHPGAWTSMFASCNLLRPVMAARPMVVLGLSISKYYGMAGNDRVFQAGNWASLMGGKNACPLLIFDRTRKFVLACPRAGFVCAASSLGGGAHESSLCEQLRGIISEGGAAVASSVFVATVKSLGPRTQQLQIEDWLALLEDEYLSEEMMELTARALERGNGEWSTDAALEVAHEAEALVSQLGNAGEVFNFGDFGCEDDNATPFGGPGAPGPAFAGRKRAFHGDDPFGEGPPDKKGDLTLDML

On to “TTTTTCCGATCGTCCACACGGAGC (double strand) [B-IE3 (ICP4 consensus; IE-CS)]”, for which the binding signal (fold vs IE3 (reference)) in data set [1] is 1.

For CGGGGCGGGCCGGGGGCGGGG [B-VEGF], in data set [1], the binding signal stood at 2.5 fold vs IE3.

In turn, “TTTTTGGGGGCGAGGGGCGGGAGGGGGCGAGGGGGGGGGCGAGGGGCGGGAGGGGGCGAGGGG [B-un2L2]” showed a binding signal in data set [1] of 2.5 fold vs IE3.

As to TTTTTGGGGAGGGTGGGGAGGGTGGGGAAGG [B-myc], the binding signal in data set [1] was 2.5 fold vs IE3.

GGGTTAGGGTTAGGGTTAGGG (structured_DNA) [hTel (radiolabelled)]: the binding result with ICP8 [2] is “no binding”.

As for GGGGGCGAGGGGCGGGAGGGGGCGAGGGG (structured_DNA) [F-un2], the binding result in data set [3] (G4) is “binds”.

Regarding GGGGGCGAGGGGCGGGAGGGGGCGAGGGG (structured_DNA) [un2 (radiolabelled)], the binding result with ICP8 [2] is “no binding”.

In the case of GGGAGGCGTGGCCTGGGCGGGACTGGGG (structured_DNA) [LTR-III (radiolabelled)], the binding result in the data set with ICP8 [2] is reported as “no binding”.

As to GGAGTCGTGTCGCGTGTCGAGCGTGTGTAGTGG (ssDNA) [F-G-rich-scrambled], in data set [3] (unfolded), the binding result is on record as “no binding”.

Regarding TTTTTTTTTTTTTTTTTTTTTTTTTTTTTT (ssDNA) [PolyT (T30)], the binding result with ICP8 [4] is listed as “binds”.
